Data on one molecule can be found in US20020122799A1 (published 2002).

The target in test [1] is T1, wild-type human RAGE (Receptor for Advanced Glycation Endproducts) (human, UniProt Q15109 23-404). As to the kind of experiment: cell-based or functional assay.
For test [2], the target named is T2, mutant human RAGE (82S) (human, UniProt Q15109 23-404). As to the kind of experiment: cell-based or functional assay.
Another test concerns the target T3, macrophage (MP) RAGE.
T3 construct: whole, on cells; also called RAGE on macrophages
As to the kind of experiment: binding to macrophages in culture wells.

The target in a further test is immobilized RAGE (Homo sapiens (Human), UniProt Q15109 23-342). As to the kind of experiment: binding to RAGE immobilized in culture wells.
Chain of immobilized RAGE (Q15109 23-342 limits assumed, form in doubt): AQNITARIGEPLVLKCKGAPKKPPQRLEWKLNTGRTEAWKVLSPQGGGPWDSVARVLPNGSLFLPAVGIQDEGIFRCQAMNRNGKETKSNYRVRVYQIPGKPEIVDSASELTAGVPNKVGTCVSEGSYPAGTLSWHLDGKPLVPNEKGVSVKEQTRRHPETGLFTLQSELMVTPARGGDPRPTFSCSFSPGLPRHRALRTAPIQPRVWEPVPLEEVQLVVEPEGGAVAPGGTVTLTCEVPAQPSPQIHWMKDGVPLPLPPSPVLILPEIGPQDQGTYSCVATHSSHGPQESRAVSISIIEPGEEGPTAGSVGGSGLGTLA
For test [3], the target named is T1, wild-type human RAGE (Receptor for …). As to the kind of experiment: binding to endothelial cells in culture wells.
For test [4], the target named is T2, mutant human RAGE (82S). Nature of the test: radioligand binding to stably transfected CHO cells expressing human RAGE (82S), Klotz-Hunston fit. The protocol: (§1) FIG. 11A. Immunoblotting. Lysates of stably-transfected CHO cells were prepared and subjected to immunoblotting using anti-human RAGE IgG (2 μg/ml). FIGS. 11B-C. Radioligand binding assays. Purified EN-RAGE was radiolabelled using ¹²⁵-I and radioligand binding assays were performed in 96-well tissue culture dishes containing the indicated transfected CHO cells. Assays were performed in the presence of the indicated concentration of radiolabelled EN-RAGE±an 50-fold molar excess of unlabeled EN-RAGE. Elution of bound material was performed in a solution containing heparin. Equilibrium binding data were analyzed according to the equation of Klotz and Hunston. Where indicated, pretreatment with either antibodies (70 μg/ml), human soluble RAGE or bovine serum albumin (50-fold molar excess) was performed. The mean±standard deviation (SD) is shown. In FIG. 11C, * indicates p<0.01 versus respective controls. FIG. 11D. Activation of p44/p42 MAP kinases. The indicated stably-transfected CHO cells were incubated with EN-RAGE, 10 μg/ml, for one hr. Cell lysates were subjected to SDS-PAGE and transfer of the gels' contents to nitrocellulose. Immunblotting was performed using anti-phosphorylated p44/p42 MAP kinase (1 μg/ml). […] In FIGS. 11D-11E, bands were scanned into a densitometer, and band density was quantified using ImageQuant. […]

Test [5] deals with T1, wild-type human RAGE (Receptor for …). As to the kind of experiment: radioligand binding to stably transfected CHO cells expressing wild-type human RAGE, Klotz-Hunston fit. How it is done: as §1

T1 sequence (Q15109 23-404): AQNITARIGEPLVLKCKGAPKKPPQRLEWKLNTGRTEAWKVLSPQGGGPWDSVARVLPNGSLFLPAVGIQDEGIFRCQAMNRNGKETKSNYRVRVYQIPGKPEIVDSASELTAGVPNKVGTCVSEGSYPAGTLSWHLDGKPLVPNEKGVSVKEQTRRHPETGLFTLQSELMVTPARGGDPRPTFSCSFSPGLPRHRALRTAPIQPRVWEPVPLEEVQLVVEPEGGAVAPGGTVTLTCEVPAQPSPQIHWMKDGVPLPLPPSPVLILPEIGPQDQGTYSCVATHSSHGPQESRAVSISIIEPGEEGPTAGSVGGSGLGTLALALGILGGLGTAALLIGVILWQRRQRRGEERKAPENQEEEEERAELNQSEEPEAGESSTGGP
T2 sequence (Q15109 other isoform, or with tags, fused parts or gaps mutant): as the sequence (Q15109 23-404) above, with G60S counted along it

B1: EN-RAGE (Extracellular Novel RAGE binding protein) (ligand, bovine, UniProt P79105 2-92, looked up)
chain: TKLEDHLEGIINIFHQYSVRVGHFDTLNKRELKQLITKELPKTLQNTKDQPTIDKIFQDLDADKDGAVSFEEFVVLVSRVLKTAHIDIHKE
modifications: radiolabelled with 125-I (Iodobeads) in the radioligand binding assays
notes: mature; also called S100A12
As to B1, in test [1], the “MMP-9 activity (zymography) of human MPs” value was about 2.3 fold, the “NF-kB nuclear binding activity (EMSA) in CHO transfectants” value was about 5.4 fold, the “activation of p44/p42 MAP kinases in human MPs” value is about 2.2 fold and the “adhesion of Molt-4 cells to cultured ECs” value is 7 fold. For the same molecule, in test [1], the “expression of cell-surface VCAM-1 on cultured ECs” value amounted to 4.3 fold, the “generation of IL-6 by human MPs” value is about 1.5 fold, the “generation of TNF-alpha by human MPs” value is about 4 fold and the “phosphorylated p44/42 MAP kinases in CHO transfectants” value is about 2 fold. In addition, in the test with mutant human RAGE (82S) [2], the “IL-6, mutant RAGE against wild-type MPs” value is about 7.3 fold; the “MMP-9 activity (zymography) of human MPs” value is about 4.7 fold; the “MMP-9 activity, mutant RAGE allele against wild-type receptor MPs” value was about 2 fold; the “NF-kB gel shift band (EMSA) in CHO transfectants” value is about 11.3 fold. Moreover, in the test with mutant human RAGE (82S) [2], the “NF-κB activation, mutant against wild-type receptor” value was about 2.1 fold; the “TNF-alpha, RAGE (G82S)/(S82S) against wild-type RAGE MPs” value is about 4.5 fold; the “elaborated TNF-alpha by human MPs” value is about 17.8 fold; the “generation of IL-6 by human MPs” value is about 10.9 fold. Moreover, in the test with mutant human RAGE (82S) [2], the “phosphorylated p44/42 MAP kinases in CHO transfectants” value is about 3.9 fold; the “phosphorylated p44 and p42 MAP kinases in human MPs” value is about 4.8 fold. Besides, the Kd in the test with macrophage (MP) RAGE was about 75 nM. For the same molecule, in the test with immobilized RAGE, the equilibrium dissociation constant (Kd) is about 75 nM. Also, the equilibrium dissociation constant (Kd) in test [3] is about 75 nM. This molecule registered a Kd in the test with mutant human RAGE (82S) [4] of about 77 nM. In test [5], the Kd was about 122 nM.
